In patent EP4670784A1 (Eberhard Karls Universität Tübingen (Medizinische Fakultät), dated 2025):

T1: G-CSFR on NFS-60 cells (UniProt P40223 26-837, limits assumed)
T1 sequence (looked up): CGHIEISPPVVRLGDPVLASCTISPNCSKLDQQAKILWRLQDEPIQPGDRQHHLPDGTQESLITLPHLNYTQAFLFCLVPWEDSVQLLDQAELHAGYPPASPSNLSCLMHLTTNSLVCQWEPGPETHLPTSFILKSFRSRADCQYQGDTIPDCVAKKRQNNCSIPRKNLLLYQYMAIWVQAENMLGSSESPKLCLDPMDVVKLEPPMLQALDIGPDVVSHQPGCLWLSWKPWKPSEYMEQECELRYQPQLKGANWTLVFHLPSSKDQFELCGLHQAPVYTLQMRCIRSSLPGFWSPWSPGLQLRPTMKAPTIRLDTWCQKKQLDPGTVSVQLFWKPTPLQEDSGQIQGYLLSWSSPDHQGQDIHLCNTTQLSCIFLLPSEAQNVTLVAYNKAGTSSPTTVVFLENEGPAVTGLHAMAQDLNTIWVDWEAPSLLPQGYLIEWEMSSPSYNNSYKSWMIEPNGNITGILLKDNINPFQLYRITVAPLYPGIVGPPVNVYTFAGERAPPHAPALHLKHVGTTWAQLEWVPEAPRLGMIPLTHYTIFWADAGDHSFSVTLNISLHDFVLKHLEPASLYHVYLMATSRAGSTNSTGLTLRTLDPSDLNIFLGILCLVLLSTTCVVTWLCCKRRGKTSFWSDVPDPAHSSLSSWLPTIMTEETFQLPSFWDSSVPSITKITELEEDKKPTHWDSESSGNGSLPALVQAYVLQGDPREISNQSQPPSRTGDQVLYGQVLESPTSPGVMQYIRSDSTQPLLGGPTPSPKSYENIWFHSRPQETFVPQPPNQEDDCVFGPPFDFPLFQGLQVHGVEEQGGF

T2: G-CSFR on Kasumi-1 cells (UniProt Q99062 25-836, limits assumed)
T2 sequence (looked up): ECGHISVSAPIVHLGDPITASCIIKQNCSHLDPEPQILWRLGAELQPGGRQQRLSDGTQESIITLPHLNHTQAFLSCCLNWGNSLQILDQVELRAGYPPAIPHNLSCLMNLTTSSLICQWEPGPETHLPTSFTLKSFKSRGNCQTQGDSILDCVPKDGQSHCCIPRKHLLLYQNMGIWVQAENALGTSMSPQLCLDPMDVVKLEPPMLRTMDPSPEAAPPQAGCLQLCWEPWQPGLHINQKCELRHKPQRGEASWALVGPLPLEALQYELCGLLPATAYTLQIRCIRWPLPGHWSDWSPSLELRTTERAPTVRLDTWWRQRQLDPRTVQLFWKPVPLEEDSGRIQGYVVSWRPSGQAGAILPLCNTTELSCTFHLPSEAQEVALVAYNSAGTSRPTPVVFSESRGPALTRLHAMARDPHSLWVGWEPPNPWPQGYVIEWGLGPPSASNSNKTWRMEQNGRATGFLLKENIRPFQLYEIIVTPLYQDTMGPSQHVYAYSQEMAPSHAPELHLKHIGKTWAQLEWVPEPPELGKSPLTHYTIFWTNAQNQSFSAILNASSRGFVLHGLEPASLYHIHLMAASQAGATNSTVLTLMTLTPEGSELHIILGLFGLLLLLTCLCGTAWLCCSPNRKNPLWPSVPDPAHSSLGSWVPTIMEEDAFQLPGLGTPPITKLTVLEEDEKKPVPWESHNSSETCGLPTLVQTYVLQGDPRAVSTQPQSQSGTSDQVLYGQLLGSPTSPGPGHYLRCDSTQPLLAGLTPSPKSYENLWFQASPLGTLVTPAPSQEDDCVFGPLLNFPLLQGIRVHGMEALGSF

T3: Recombinant human G-CSFR (Glu25-Pro621, 381-GR/CF, R&D Systems) (human, UniProt Q99062 25-621)
T3 construct: range 25-621; Bought protein, amine-coupled to a CM5 chip for SPR; also called rhG-CSFR; granulocyte-colony stimulating factor receptor
T3 sequence (looked up): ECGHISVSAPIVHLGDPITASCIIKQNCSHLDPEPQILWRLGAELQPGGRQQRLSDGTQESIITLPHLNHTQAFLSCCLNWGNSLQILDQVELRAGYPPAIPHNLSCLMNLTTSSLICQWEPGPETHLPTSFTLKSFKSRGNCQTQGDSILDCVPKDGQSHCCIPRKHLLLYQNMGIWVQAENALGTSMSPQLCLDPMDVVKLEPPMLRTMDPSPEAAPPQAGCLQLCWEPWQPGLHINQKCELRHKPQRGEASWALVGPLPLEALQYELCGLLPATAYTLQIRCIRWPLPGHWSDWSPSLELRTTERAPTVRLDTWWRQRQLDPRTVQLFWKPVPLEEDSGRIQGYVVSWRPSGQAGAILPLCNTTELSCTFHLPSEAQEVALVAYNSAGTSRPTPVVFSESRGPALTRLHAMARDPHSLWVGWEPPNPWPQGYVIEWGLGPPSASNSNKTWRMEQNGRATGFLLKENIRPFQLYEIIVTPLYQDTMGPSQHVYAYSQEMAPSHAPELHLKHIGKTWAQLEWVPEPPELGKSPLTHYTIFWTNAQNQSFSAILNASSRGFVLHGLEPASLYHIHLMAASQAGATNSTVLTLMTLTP


Experiments:
[1] = molecular target: T1, G-CSFR on NFS-60 cells; experiment: cell-based or functional assay
[2] = molecular target: T2, G-CSFR on Kasumi-1 cells; experiment: cell-based or functional assay
[3] = molecular target: T3, Recombinant human G-CSFR (Glu25-Pro621, …); experiment: SPR, Biacore X100, multi-cycle kinetics, rhG-CSFR amine-coupled to CM5 chip, design as analyte, 1:1 model; series of Fig. 15C (from 20 nM)
[4] = molecular target: T3, Recombinant human G-CSFR (Glu25-Pro621, …); experiment: SPR, twofold dilution series from 20 nM bop3 against chip-immobilized G-CSFR (Fig. 14B); reference not named
[5] = molecular target: T3, Recombinant human G-CSFR (Glu25-Pro621, …); experiment: SPR, rhG-CSFR on CM5 chip (Fig. 3E)
[6] = molecular target: T3, Recombinant human G-CSFR (Glu25-Pro621, …); experiment: SPR, Biacore X100, multi-cycle kinetics, rhG-CSFR amine-coupled to CM5 chip, design as analyte, 1:1 model; series of Fig. 6 (from 20 nM)
[7] = molecular target: T3, Recombinant human G-CSFR (Glu25-Pro621, …); experiment: SPR, Biacore X100, multi-cycle kinetics, rhG-CSFR amine-coupled to CM5 chip, design as analyte, 1:1 model; series of Fig. 13 (from 125 nM)
[8] = molecular target: T3, Recombinant human G-CSFR (Glu25-Pro621, …); experiment: not stated in the sentence (SPR values of Table 2 agree)
[9] = molecular target: T3, Recombinant human G-CSFR (Glu25-Pro621, …); experiment: SPR, Biacore X100, multi-cycle kinetics, rhG-CSFR amine-coupled to CM5 chip, design as analyte, 1:1 model; series of Fig. 13 (from 31 nM)

Row | Kd [3] [nM] | koff [3] [s⁻¹] | kon [3] [M⁻¹ s⁻¹] | Kd [6] [nM] | koff [6] [s⁻¹] | kon [6] [M⁻¹ s⁻¹] | Kd [9] [nM] | koff [9] [s⁻¹] | kon [9] [M⁻¹ s⁻¹] | Binder | also measured
1 | 1.2 | 0.0018 | 1.5e+06 |  |  |  |  |  |  | bop3 (designed binder, exclusively monomeric by SEC; Expressed from pET28a downstream of an N-terminal His-tag and thrombin cleavage site) MAALDAALYEIYDGLILYQQRLKSLEGISPELGPALDALRYDMADFAYLMAQAMEEGLDSLPQRFLWKALEMIRKIQADAAALREKLAATYKGNDRAAAAQSIARKLEEMLEKAYQILRHLAAA | fold improvement in inhibitory potency compared to bop1, NFS-60 competitive inhibition assay [1]: 3 fold; IC50, Kasumi-1 competitive inhibition assay, 400 pg/mL rhG-CSF [2]: 1.97 nM; fold improvement in the receptor-binding affinity [4]: 10 fold
2 |  |  |  | 0.85 | 0.0013 | 1.9e+06 |  |  |  | bop2 (designed binder, Strictly monomeric in solution; Expressed from pET28a downstream of an N-terminal His-tag and thrombin cleavage site; also called bivalent-orientation parallel design 2) MAALDAALYDIYDGLILYQQQLESLEGISPELGPALDALRYDMADFAILMAQAMEEGLDSLPQSFLRKALEMIRKIQADAAALREKLAATYKGNDRAAAAQSIARKLEEMLRKAYQDLRHLAAA | fold tighter binding than bv6 [5]: 4 fold
3 |  |  |  | 1.1 | 0.0013 | 1.4e+06 |  |  |  | boa2 (designed binder, Strictly monomeric in solution; Expressed from pET28a downstream of an N-terminal His-tag and thrombin cleavage site; also called bivalent-orientation antiparallel design 2) MAALAAALQSIYRKLAEMQRKLKSLEGISPELGPALDALRYDMADFAILMAQAMEEGLDSLPQSFLRKALEMIRKIQADAAALREKLAATYKGNDRADAAVYDAADLEILLEQAYEILRHLAAA | fold tighter binding than bv6 [5]: 4 fold
4 |  |  |  | 4.3 | 0.0051 | 1.2e+06 |  |  |  | bv6 (designed binder, Expressed from pET28a downstream of an N-terminal His-tag and thrombin cleavage site; Minorly dimeric in solution; also called starting template) MAALAAALAEIYKGLAEYQARLKSLEGISPELGPALDALRYDMADFAILMAQAMEEGLDSLPQSFLRKALEMIRKIQADAAALREKLAATYKGNDRAAAAVEIAAQLEAFLEKAYQILRHLAAA | Kd [7]: 14 nM; koff [7]: 0.0033 s⁻¹; kon [7]: 240000 M⁻¹ s⁻¹; fold tighter binding than Boskar4 [8]: 12 fold
5 |  |  |  |  |  |  | 1.4 | 0.0011 | 820000 | bv21 (designed binder, Expressed from pET28a with N-terminal His-tag and thrombin cleavage site; also called Boskar4 variant bv21) MAALAAALAEIYKGLAEYQARLKSLEGISPELGPALDALRWDMADFAYLMAQAMEEGLDSLPQRFLWKALEMIRKIQADAAALREKLAATYKGNDRAAAAVEIAAQLEAFLEKAYQILRHLAAA | 
6 |  |  |  |  |  |  | 1.8 | 0.0015 | 860000 | bv23 (designed binder, Expressed from pET28a with N-terminal His-tag and thrombin cleavage site; also called Boskar4 variant bv23) MAALAAALAEIYKGLAEYQARLKSLEGISPELGPALDALRYDMADFAYLMAQAMEEGLDSLPQSFLWKALEMIRWIQADAAALREKLAATYKGNDRAAAAVEIAAQLEAFLEKAYQILRHLAAA | 
7 | 1.3 | 0.0018 | 1.4e+06 |  |  |  | 1.1 | 0.00092 | 880000 | bv22 (designed binder, Expressed from pET28a with N-terminal His-tag and thrombin cleavage site; also called Boskar4 variant bv22; second-generation variant) MAALAAALAEIYKGLAEYQARLKSLEGISPELGPALDALRYDMADFAYLMAQAMEEGLDSLPQRFLWKALEMIRKIQADAAALREKLAATYKGNDRAAAAVEIAAQLEAFLEKAYQILRHLAAA | 
8 | 3.2 | 0.0063 | 2e+06 | 2.7 | 0.0022 | 880000 |  |  |  | bop1 (designed binder, De novo four-helix bundle, strictly monomeric in solution; Expressed from pET28a downstream of an N-terminal His-tag and thrombin cleavage site; also called bivalent-orientation parallel design 1) MAALDAALYEIYDGLILYQQRLKSLEGISPELGPALDALRYDMADFAILMAQAMEEGLDSLPQSFLRKALEMIRKIQADAAALREKLAATYKGNDRAAAAQSIARKLEEMLEKAYQILRHLAAA | 
9 |  |  |  | 3.7 | 0.0024 | 690000 |  |  |  | boa1 (designed binder, Strictly monomeric in solution; Expressed from pET28a downstream of an N-terminal His-tag and thrombin cleavage site; also called bivalent-orientation antiparallel design 1) MAALAAALQSIYRKLAEMQAKLKSLEGISPELGPALDALRYDMADFAILMAQAMEEGLDSLPQSFLRKALEMIRKIQADAAALREKLAATYKGNDRADAAVYIAADLEILLEQAYQILRHLAAA | 
10 |  |  |  |  |  |  | 1.7 | 0.0017 | 1e+06 | bv24 (designed binder, Expressed from pET28a with N-terminal His-tag and thrombin cleavage site; also called Boskar4 variant bv24) MAALAAALAEIYKGLAEYQARLKSLEGISPELGPALDALRWDMADFACLMAQAMEEGLDSLPQRFLWKALEMIRKIQADAAALREKLAATYKGNDRAAAAVEIAAQLEAFLEKAYQILRHLAAA | 
